Reference: the supplement of paper PMC10065799, “High-throughput profiling of sequence recognition by tyrosine kinases and SH2 domains using bacterial peptide display” (eLife, 2023)

Tests used:
[1] = biological target: Grb2 SH2 (UniProt P62993); experiment: SH2 binding enrichment of the phosphorylated peptide, bacterial display (enrichment ratio); higher = better substrate or ligand; peptides without Tyr show the background
[2] = biological target: SHP2-C SH2; experiment: as above
[3] = biological target: c-Src SH2; experiment: as above
[4] = test system: c-Abl (mouse); experiment: phosphorylation enrichment, bacterial display (enrichment ratio); higher = better substrate or ligand; peptides without Tyr show the background
[5] = test system: c-Src; experiment: as above
[6] = biological target: Fyn (UniProt P06241); experiment: as above
Sequence of Fyn (P06241 whole entry, looked up): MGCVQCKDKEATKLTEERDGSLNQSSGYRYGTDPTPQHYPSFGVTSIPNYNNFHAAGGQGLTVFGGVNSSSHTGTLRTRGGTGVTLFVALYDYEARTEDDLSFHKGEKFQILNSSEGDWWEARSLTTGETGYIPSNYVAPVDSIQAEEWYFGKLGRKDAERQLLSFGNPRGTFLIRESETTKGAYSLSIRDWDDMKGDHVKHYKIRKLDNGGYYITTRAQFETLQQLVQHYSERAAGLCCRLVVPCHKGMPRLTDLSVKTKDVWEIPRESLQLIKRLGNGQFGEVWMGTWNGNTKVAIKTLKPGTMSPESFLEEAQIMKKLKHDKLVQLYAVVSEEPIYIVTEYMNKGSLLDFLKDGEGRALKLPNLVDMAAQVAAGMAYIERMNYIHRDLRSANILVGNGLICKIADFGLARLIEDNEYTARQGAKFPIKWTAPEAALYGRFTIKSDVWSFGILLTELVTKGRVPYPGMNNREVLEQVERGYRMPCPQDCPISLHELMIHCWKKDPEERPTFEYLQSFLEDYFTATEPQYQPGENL

[7] = biological target: Hck (UniProt P08631); experiment: as above
Sequence of Hck (P08631 whole entry, looked up): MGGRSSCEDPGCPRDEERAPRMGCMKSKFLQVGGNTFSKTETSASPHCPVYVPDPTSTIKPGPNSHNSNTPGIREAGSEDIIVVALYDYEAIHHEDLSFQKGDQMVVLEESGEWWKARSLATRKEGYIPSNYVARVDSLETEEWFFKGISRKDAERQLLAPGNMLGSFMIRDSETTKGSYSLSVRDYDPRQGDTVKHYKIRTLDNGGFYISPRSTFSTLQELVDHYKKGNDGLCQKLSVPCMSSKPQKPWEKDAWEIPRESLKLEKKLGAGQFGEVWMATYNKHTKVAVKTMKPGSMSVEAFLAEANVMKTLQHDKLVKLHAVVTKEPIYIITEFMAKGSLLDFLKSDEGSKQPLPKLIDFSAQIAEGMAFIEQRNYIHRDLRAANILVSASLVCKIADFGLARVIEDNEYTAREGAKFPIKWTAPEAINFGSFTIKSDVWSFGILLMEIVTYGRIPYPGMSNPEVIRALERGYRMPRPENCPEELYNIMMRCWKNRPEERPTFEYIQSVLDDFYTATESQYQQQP

[8] = biological target: Jak2 (UniProt O60674); experiment: as above
[9] = biological target: EPHB1 (UniProt P54762); experiment: as above
Sequence of EPHB1 (P54762 whole entry, looked up): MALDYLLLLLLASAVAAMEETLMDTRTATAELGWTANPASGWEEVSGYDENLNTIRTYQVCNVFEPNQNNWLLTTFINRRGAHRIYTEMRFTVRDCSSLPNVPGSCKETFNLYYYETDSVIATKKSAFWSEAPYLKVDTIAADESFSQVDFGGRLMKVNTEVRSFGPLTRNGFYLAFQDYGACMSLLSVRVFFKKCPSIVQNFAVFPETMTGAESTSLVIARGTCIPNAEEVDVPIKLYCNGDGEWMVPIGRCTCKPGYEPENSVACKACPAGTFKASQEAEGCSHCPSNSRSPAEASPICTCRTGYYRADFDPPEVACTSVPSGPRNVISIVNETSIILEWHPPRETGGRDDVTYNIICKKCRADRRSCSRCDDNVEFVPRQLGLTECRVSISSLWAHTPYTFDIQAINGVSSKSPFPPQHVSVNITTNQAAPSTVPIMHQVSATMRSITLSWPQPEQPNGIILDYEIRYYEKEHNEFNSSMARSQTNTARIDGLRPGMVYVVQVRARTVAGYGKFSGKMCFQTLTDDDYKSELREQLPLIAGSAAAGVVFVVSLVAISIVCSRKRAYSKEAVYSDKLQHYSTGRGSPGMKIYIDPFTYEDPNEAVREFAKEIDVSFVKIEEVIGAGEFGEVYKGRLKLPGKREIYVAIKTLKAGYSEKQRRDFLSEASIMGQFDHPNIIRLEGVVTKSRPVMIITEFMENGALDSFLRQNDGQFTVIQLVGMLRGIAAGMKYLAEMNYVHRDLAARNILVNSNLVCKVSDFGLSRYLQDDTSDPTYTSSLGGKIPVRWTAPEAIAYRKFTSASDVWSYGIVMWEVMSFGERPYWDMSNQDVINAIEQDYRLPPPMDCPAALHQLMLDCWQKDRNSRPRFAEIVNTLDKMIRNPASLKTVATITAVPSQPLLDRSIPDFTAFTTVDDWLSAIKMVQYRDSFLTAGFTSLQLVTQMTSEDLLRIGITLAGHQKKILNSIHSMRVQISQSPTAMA

[10] = biological target: MERTK (UniProt Q12866); experiment: as above
Sequence of MERTK (Q12866 whole entry, looked up): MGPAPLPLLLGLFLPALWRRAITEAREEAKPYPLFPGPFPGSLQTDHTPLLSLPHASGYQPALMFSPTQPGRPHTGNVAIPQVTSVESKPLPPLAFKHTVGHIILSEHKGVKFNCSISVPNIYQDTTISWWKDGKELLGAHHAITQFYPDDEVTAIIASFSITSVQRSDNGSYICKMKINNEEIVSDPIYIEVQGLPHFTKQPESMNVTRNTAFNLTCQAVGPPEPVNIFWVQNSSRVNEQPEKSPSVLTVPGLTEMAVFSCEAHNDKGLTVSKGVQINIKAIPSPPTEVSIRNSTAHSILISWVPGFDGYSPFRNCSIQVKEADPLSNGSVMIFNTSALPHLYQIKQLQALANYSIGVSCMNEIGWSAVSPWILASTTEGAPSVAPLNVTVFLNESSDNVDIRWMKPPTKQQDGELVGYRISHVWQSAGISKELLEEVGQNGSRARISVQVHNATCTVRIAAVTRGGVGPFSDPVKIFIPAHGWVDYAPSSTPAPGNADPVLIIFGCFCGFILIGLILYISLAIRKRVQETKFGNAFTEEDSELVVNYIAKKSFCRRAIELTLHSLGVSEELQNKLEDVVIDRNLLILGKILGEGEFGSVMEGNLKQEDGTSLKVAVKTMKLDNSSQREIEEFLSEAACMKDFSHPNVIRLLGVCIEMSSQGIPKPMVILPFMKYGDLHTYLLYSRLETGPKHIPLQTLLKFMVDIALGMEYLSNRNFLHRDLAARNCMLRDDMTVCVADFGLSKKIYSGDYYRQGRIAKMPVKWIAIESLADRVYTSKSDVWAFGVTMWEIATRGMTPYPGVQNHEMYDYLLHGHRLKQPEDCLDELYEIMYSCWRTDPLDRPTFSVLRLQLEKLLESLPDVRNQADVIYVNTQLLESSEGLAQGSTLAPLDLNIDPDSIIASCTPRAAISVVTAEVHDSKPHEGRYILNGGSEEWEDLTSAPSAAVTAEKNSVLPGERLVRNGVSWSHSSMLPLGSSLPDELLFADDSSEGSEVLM

[11] = biological target: Fes (UniProt P07332); experiment: as above
Sequence of Fes (P07332 whole entry, looked up): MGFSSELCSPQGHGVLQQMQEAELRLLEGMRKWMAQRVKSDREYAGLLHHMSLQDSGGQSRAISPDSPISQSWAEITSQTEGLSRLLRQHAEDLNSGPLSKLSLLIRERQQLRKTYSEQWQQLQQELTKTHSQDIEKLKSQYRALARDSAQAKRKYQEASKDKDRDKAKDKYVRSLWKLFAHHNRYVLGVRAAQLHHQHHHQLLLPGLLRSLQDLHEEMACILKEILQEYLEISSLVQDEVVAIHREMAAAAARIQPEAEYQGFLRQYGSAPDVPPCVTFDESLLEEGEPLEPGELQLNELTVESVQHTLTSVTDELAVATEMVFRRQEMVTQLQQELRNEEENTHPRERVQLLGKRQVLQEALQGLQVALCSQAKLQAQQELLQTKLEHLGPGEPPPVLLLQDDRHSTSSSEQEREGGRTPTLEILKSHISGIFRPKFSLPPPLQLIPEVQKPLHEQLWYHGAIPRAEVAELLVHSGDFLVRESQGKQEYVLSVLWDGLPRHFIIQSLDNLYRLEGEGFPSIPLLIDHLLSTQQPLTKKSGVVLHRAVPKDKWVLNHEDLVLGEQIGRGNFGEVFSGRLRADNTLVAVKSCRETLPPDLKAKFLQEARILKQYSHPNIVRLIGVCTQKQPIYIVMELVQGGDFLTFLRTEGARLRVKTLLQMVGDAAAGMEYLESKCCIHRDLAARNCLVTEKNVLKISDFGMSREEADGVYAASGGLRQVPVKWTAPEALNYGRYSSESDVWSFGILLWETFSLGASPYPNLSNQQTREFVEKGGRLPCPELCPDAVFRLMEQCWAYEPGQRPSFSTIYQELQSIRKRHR

[12] = test system: AncSZ; experiment: as above
[13] = biological target: FGFR1 (UniProt P11362); experiment: as above
[14] = biological target: FGFR3 (UniProt P22607); experiment: as above
Sequence of FGFR3 (P22607 whole entry, looked up): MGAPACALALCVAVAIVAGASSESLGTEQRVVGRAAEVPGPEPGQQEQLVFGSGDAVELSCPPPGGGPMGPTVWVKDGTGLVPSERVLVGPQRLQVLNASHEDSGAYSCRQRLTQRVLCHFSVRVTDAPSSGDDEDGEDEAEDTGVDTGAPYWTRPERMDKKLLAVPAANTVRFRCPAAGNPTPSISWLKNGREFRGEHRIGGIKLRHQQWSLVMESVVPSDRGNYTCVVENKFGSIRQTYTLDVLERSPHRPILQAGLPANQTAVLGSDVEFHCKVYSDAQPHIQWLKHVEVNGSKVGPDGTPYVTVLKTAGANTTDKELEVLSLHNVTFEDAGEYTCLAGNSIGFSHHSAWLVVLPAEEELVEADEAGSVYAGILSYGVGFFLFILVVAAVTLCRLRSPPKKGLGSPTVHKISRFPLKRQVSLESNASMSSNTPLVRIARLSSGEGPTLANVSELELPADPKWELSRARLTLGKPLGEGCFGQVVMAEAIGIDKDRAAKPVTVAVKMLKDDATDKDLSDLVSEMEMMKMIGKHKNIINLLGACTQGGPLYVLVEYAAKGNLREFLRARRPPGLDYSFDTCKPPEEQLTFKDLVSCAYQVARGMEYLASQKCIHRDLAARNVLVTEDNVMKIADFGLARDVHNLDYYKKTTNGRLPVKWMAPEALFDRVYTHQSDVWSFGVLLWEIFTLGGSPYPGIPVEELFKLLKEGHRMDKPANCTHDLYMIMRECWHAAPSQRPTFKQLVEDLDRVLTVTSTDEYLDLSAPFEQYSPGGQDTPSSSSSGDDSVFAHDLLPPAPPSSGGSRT

[15] = biological target: EPHB2 (UniProt P29323); experiment: as above
[16] = test system: Fer (mouse); experiment: as above
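Throughout, for SH2 binding enrichment of the phosphorylated peptide, bacterial display: peptide library displayed on the E. coli surface as eCPX fusions, selected cells deep-sequenced, score is each peptide's frequency after selection divided by its frequency in the input.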
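Throughout, for phosphorylation enrichment, bacterial display: 11-residue human phosphosite peptides and single-mutation variants displayed on the E. coli surface, counted by deep sequencing, each peptide's frequency after selection divided by its frequency in the unselected input library; frequency after pTyr selection over input frequency; kinase dosed for 20-30% of maximal phosphorylation in three min.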

SH2 binding enrichment [1]	SH2 binding enrichment [2]	SH2 binding enrichment [3]	Sequence	phosphorylation enrichment [4]	phosphorylation enrichment [5]	phosphorylation enrichment [6]	phosphorylation enrichment [7]	phosphorylation enrichment [8]	phosphorylation enrichment [9]	phosphorylation enrichment [10]	phosphorylation enrichment [11]	phosphorylation enrichment [12]	phosphorylation enrichment [13]	phosphorylation enrichment [14]	phosphorylation enrichment [15]	phosphorylation enrichment [16]
1.06	0.622	0.429	DLDTEYGSGFP [RNASEH2A_Y206_D205E_YF]	1.27	0.825	0.744	0.654	1.39	0.676	0.469	1.34	1.55	0.622	0.958	0.642	0.799
1.02	0.851	0.687	FIATQYSLCPR [LBR_Y166_R169C_YF]	0.777	0.683	0.486	0.749	1.14	0.618	0.752	1.07	1.03	0.475	0.762	0.666	0.631
0.592	0.377	0.585	CFTGKYTLPPG [HSPB1_Y142_R140G]	0.833	0.429	0.595	0.519	0.908	0.562	0.767	1.25	1.09	0.447	0.75	0.649	0.521
0.77	1.03	0.433	ALMGPYHGQVL [HADHA_Y343_L342P]	0.61	0.46	0.336	0.384	0.485	0.366	0.335	0.537	0.544	0.411	0.436	0.41	0.336
0.677	0.541	6.34	VDSAHYQLLET [DTX3L_Y385_K386Q]	0.728	0.705	0.588	0.709	0.891	0.813	1.13	0.909	0.946	1.14	0.952	0.616	4.07
1.04	0.722	0.541	LTNDRYLATLT [IL6ST_Y396]	1.58	0.533	0.746	0.463	0.97	0.625	0.597	1.07	0.761	0.676	0.586	0.709	0.568
0.847	5.82	4.06	LTGIAYSLPHW [SLC22A14_Y291]	1.41	0.764	0.921	1.08	0.997	0.969	3.24	1.68	1.61	0.658	0.956	0.94	0.877
0.777	0.506	1.02	TRYDEYLEVTK [MAP1A_Y2217_H2214Y]	0.909	0.538	0.519	0.539	1.16	0.98	0.425	1.25	1.31	0.901	0.872	0.884	0.592
0.772	1.68	1.09	RRNTFYASIAK [ACADM_Y353_YF]	0.509	0.638	0.482	0.463	0.511	0.453	0.474	0.622	0.605	0.442	0.583	0.455	0.367
0.713	0.842	0.547	LVRPPYSFLAL [FOXI1_Y126_S129L_YF]	0.526	0.525	0.525	0.727	0.71	0.584	1.05	0.787	0.683	1.07	0.866	0.523	1.22
0.971	0.731	0.724	KEKLCYVAPDF [ACTA1_Y220_L223P]	5.43	0.581	0.424	0.489	1.18	0.558	0.656	0.836	1.4	0.635	0.603	0.637	0.419
0.901	0.847	0.421	EEQKKYFNAMK [SCN5A_Y1494_YF]	0.616	0.479	0.489	0.459	0.672	0.459	0.428	0.866	0.882	0.421	0.656	0.474	0.341
1.02	0.829	0.606	NHQFDYTFDWT [CSNK1A1_Y294_YF]	0.995	1.22	0.584	0.543	1.08	0.696	0.565	1.12	1.23	3.58	2.22	0.721	0.459
0.707	0.999	14.3	KNNDGYIDFAE [MCFD2_Y135_YF]	0.663	0.395	0.406	0.513	0.903	0.492	0.377	1.06	0.921	0.556	0.725	0.483	0.559
0.705	0.667	0.499	DSSIRYLQEIH [FGG_Y135_Y140H]	0.524	0.347	0.388	0.356	0.561	0.378	0.369	0.667	0.597	0.384	0.509	0.402	0.33
0.45	0.412	0.282	MSLRSYGSWEG [APC_Y96_R99W]	0.273	0.705	0.633	0.459	0.793	0.581	0.047	0.881	1.32	0.034	0.671	0.338	
			RETLTYAQAQG [BRD1_Y33_R38G]	0.418	0.768	0.551	0.982			0.391	0.448	0.579	0.916	0.149	0.934	0.383
